Columns and labels:
[1] = molecular target: Vpu-S52/56N, full-length Vpu (NL4-3) double mutant (HIV-1 strain NL4-3); test: SEC; time-dependent SEC from a stock solution over up to 12 days in 50 mM NaCl buffer; peak area P1/(P1+P2) over time fitted with a logistic growth function (dimer to higher oligomer)
[2] = molecular target: Vpu-S52/56D, full-length Vpu (NL4-3) double mutant (HIV-1 strain NL4-3); test: as above

Vpu-S52/56N, full-length Vpu (NL4-3) double mutant (natural protein)
growth rate c of the higher oligomer (logistic fit of P1/(P1+P2) over time) [1]: 1.05 day^−1

Vpu-S52/56D, full-length Vpu (NL4-3) double mutant (natural protein)
growth rate c of the higher oligomer (logistic fit of P1/(P1+P2) over time) [2]: 0.56 day^−1

Source: article PMC4926278
